Experimental data: PMC7181197
Where two headings read alike, the source gives them in different places.

Assays:
GFP-G3BP1(ΔRG) [1] = biological target: GFP-G3BP1(ΔRG)
GFP-G3BP1(ΔRG) [2] = experiment: SEC

A stoichiometry N (GFP-G3BP1(ΔRG) [1]) of 2 and a stoichiometry N (GFP-G3BP1(ΔRG) [2]) of 2 were found for GFP-G3BP1(ΔRG) (domain or fragment) in this work.
